The values below come from publication PMC5410128, “Can Aptameric Ligands Specific to Plasma Coagulation Factor VII Bind the Recombinant Form with High Affinity: Affinity Measurement by Fluorescence Method”.

One may read the Kd as the constant that tells how readily two partners part at equilibrium.

For this data set, the target named is recombinant activated coagulation factor VII (FVIIa, AryoSeven) (UniProt P08709;P08709 61-212;213-466). As to the kind of experiment: fluorescence intensity change (FAM), plate reader; 5 mM Ca2+, 5 mM Mg2+; 40 mM Tris, 117 mM NaCl, 5 mM CaCl2, 5 mM MgCl2, pH 7.4; 1 nM protein, aptamer 100 pM-10 uM; 4 C, 1 h; errors are SE. The note with it: copies: 1;1, single strand, predicted partly folded.
Sequence of recombinant activated coagulation factor VII (FVIIa, AryoSeven) (P08709 61-212, chain 1 of 2): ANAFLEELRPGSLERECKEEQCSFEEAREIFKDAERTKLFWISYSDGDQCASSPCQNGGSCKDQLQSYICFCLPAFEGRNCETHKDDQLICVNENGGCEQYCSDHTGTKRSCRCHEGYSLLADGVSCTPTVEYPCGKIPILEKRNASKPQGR
Sequence of recombinant activated coagulation factor VII (FVIIa, AryoSeven) (P08709 213-466, chain 2 of 2): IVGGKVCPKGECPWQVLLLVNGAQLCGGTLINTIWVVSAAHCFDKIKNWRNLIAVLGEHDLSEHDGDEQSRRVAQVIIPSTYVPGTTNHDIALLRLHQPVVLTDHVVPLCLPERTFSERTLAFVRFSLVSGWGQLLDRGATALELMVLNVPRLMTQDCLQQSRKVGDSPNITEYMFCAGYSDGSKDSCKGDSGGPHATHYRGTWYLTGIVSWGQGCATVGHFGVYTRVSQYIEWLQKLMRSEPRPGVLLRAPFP

As for CCGCACACCACGCGCATAATCCCGCGCACACGACTTGAAGTAGC (ssDNA) [Apt44], the Kd is 167 ± 18 nM.

B1: Apt81 (ssDNA)
DNA: GGGAGATAGCCACGACCTATGCAGCCAGCCGCAGTGTAAGTGAATGCAGACATGGTCTAAGTGTCCAGGCTGTGCGAAAGC
Regarding B1, the Kd is 938 ± 149 nM.
